In PMC11646347:
Values belong to the molecule of their own block, whether it stands above or below them.

Legend:
streptavidin = streptavidin (UniProt P22629); assay: native MS; native CZE online with ESI and a Q-Exactive UHMR Orbitrap; mixture of standard proteins and protein complexes; background electrolyte 25 mM ammonium acetate pH~7.0, sheath buffer 10 mM ammonium acetate pH~7.0; original sample (about 15 ng consumed) and a 50-fold dilution (0.1 ng CRP loaded)
[1] = molecular target: T1, C-reactive protein, P02741; assay: as above; conditions: remark: other sources report otherwise
T1 chain: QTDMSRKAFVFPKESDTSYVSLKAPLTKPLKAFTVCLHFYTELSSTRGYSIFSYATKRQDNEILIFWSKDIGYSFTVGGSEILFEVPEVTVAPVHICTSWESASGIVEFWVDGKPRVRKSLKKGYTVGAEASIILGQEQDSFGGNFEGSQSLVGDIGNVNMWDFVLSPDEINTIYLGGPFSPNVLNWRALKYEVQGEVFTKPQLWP

stoichiometry N (streptavidin): 4
Molecule: streptavidin (from UniProt P22629 25-183) (natural protein)

stoichiometry N [1]: 5
B1: C-reactive protein, P02741 19-224 (natural protein)
chain: T1 chain
